Bounds are passed on as bounds.

The text below walks through data of US20210347865A1 (STATEN BIOTECHNOLOGY B V, published 2021).

Assay [1] addresses T1, native human ApoC3 (human, UniProt P02656 21-99, biotinylated in the captured-antigen assays (Tables 6 and 8); sites not stated).
T1 construct: also called nhuApoC3; native huApoC3
The assay is described as follows: SPR, IgG captured via anti-human Fc, ApoC3 analyte 50 nM. As for the experimental part: (§1) Immobilization was performed in accordance with the method provided by Biacore in the NHS/EDC kit (Biacore AB). Briefly, after activation of the chip, a solution of 30 μg/ml anti-human Fcγ antibody in 10 mM acetate buffer with pH 5.0 was injected until the surface density reached approximately 10,000 RU. […] Following antibody capture, 100 μl of HBS-EP buffer was injected and passed through the flow cells at 30 μl/min. To bind target, 60 μl of 400 nM, 200 nM, 100 nM, or 50 nM ApoC3 protein in HBS-EP buffer was injected. An off-rate wash was performed by injection of HBS-EP buffer at 30 μl/min for 5 min. After dissociation, the flow cell surfaces were regenerated by injecting 20 μl of 10 mM glycine at pH 1.5.
(§2) The resulting sensorgrams were analysed with BIAevaluation 4.1 software using the Langmuir 1:1 binding model to derive binding kinetics. Data was zero adjusted and the reference cell sensorgrams were subtracted. A no-analyte blank assay was used for double referencing the sensorgrams corresponding to nhuApoC3 and rcyApoC3 injections. The dissociation and association phase sensorgrams were fitted separately for the 4 different concentration curves. Sensorgrams were excluded from the fitting if maximum RU values were below the limit of detection (i.e., <5 RU). SPR signals were too low to calculate kinetic parameters for […].

Assay [2] concerns the target T1, native human ApoC3. Briefly: SPR, IgG captured via anti-human Fc, ApoC3 analyte 100 nM. As for the experimental part:
as §1, §2
For orientation: SPR reads the build-up and loss of mass on a sensor chip optically.

Assay [3] deals with T1, native human ApoC3. The assay is described as follows: SPR, IgG captured via anti-human Fc, ApoC3 analyte 200 nM. As for the experimental part: as §1, §2
The target of assay [4] is T1, native human ApoC3. The assay is described as follows: SPR, IgG captured via anti-human Fc, ApoC3 analyte 400 nM. The procedure: as §1, §2
The target of assay [5] is T1, native human ApoC3. Briefly: SPR, biotinylated antigen captured on streptavidin chip, IgG as analyte, pH 7.4.
Assay [6] deals with T1, native human ApoC3. The assay is described as follows: SPR, antigen immobilized on CM5 chip, IgG as analyte, pH 7.4; footnote: n/a: not applicable; below the limits of detection kd: 1E-06 1/s.
Assay [7] has as its target T1, native human ApoC3. The assay is described as follows: SPR, antigen immobilized on CM5 chip, IgG as analyte, pH 7.4.
In assay [8] the target is T2, recombinant cynomolgus ApoC3 (cynomolgus monkey, UniProt P18659 21-99, biotinylated in the captured-antigen assays (Tables 6 and 8); sites not stated).
T2 construct: No cleavage site is stated, so none is applied; also called rcyApoC3; bio-rcyApoC3
T2 sequence (P18659 21-99 limits assumed): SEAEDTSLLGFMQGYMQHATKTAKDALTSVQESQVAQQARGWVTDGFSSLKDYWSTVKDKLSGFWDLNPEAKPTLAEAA
The assay is described as follows: SPR, biotinylated antigen captured on streptavidin chip, IgG as analyte, pH 7.4.

Assay [9] addresses T2, recombinant cynomolgus ApoC3. Briefly: SPR, antigen immobilized on CM5 chip, IgG as analyte, pH 7.4; antigen immobilized on chip, IgG as analyte (12.5-0.8 nM).
Assay [10] shares this target. The assay is described as follows: SPR, biotinylated antigen captured on streptavidin chip, IgG as analyte, pH 7.4; biotinylated antigen captured on streptavidin chip, IgG as analyte.
The target is the same in assay [11]. Briefly: SPR, antigen immobilized on CM5 chip, IgG as analyte, pH 7.4; antigen immobilized on chip, IgG as analyte (50-0.8 nM).
For assay [12], the target named is T1, native human ApoC3. Briefly: SPR, biotinylated antigen captured on streptavidin chip, IgG as analyte, pH 7.4; footnote: n/a: not applicable; below the limits of detection kd: 1E-06 1/s.

T1 sequence (P02656 21-99): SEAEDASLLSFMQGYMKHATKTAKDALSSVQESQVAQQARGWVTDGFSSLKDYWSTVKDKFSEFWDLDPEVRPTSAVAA

B1: 5E5 WT IgG (antibody, V domains shown)
VH: QLQLVESGGGLVQPGGSLRLSCAASGFTFGTYSMRWVRQVPRKALEWVSSISTDGGGTAYRDSVKGRFTISRDNAKNTLYLQMNNLKPEDTAIYYCVIAGYSDWGQGTQVTVSS
VL: ATMLTQSPGSLSVVPGESASISCKTSQGLVHSDGKTYFYWFLQKPGQSPQQLIYQVSNRASGVPDRFTGSGSGTDFTLKISGVKAEDAGVYYCAQGTYYPHTFGSGTRLEIK
notes: Full-length IgG captured by an anti-human Fc antibody
The Kd is the concentration at which binding is half-saturated. A word on the koff: it is the first-order rate constant of dissociation. As a reminder, the kon is the rate constant with which the complex forms. For B1, the Kd with native human ApoC3 [1] came to 0.695 nM; in the assay with native human ApoC3 [2], 0.734 nM; with native human ApoC3 [3] it was 0.77 nM; in the assay with native human ApoC3 [4] it was 0.741 nM; with native human ApoC3 [5] it was 0.05 nM. The koff with native human ApoC3 [1] was 0.000114 s⁻¹; in the assay with native human ApoC3 [2] it was 0.000121 s⁻¹; with native human ApoC3 [3], 0.000128 s⁻¹; with native human ApoC3 [4], 0.000122 s⁻¹; in the assay with native human ApoC3 [5], 1.8e-05 s⁻¹; in the assay with native human ApoC3 [6], under 1e-06 s⁻¹. The kon with native human ApoC3 [1] amounted to 164000 M⁻¹ s⁻¹; with native human ApoC3 [2], 165000 M⁻¹ s⁻¹; with native human ApoC3 [3], 166000 M⁻¹ s⁻¹; in the assay with native human ApoC3 [4] it was 165000 M⁻¹ s⁻¹; in the assay with native human ApoC3 [5] it was 350000 M⁻¹ s⁻¹.

B2: 29G02 IgG (antibody, V domains shown)
VH: QLQLVESGGGLVQPGGSLRLSCAASGFTFGTYSMRWVRQVPRKALEWVSSISTDGGGTAYRDSVKGRFTISRDNAKNTLYLQMNNLKPEDTAIYYCVIAGYSDWGQGTQVTVSS
VL: DVVLTQTPGSLSVVPGESASISCKATQSLVHIDGKTYLYWLLQKPGQSPQRLIYQVSTRDSGVPDRFTGAGSGAEFTLKISGVKAEDAGVYYCAQDTYSTKTFGQGTKLEIK
Consider B2, for which the Kd with native human ApoC3 [1] was 2.31 nM; in the assay with native human ApoC3 [2] it was 2.52 nM; in the assay with native human ApoC3 [3], 2.57 nM; with native human ApoC3 [4] it was 3.04 nM; with native human ApoC3 [7], 0.01 nM; in the assay with native human ApoC3 [5] it was 0.02 nM. Further, the Kd in assay [8] was 0.37 nM; in [9] it was 0.5 nM. Also, the koff in the assay with native human ApoC3 [1] is 0.000718 s⁻¹; in the assay with native human ApoC3 [2], 0.000758 s⁻¹; with native human ApoC3 [3], 0.000733 s⁻¹; with native human ApoC3 [4], 0.000752 s⁻¹; with native human ApoC3 [7] it was 1.6e-05 s⁻¹; in the assay with native human ApoC3 [5], 3.3e-05 s⁻¹. Besides, the koff in assay [9] came out at 0.000552 s⁻¹; in assay [10], 0.000275 s⁻¹. In addition, the kon was 311000 M⁻¹ s⁻¹ with native human ApoC3 [1]; 301000 M⁻¹ s⁻¹ with native human ApoC3 [2]; 286000 M⁻¹ s⁻¹ with native human ApoC3 [3]; 247000 M⁻¹ s⁻¹ in the assay with native human ApoC3 [4]; 1.32e+06 M⁻¹ s⁻¹ with native human ApoC3 [7]; 1.31e+06 M⁻¹ s⁻¹ in the assay with native human ApoC3 [5]. Moreover, the kon in [9] came to 1.11e+06 M⁻¹ s⁻¹; in assay [10], 750000 M⁻¹ s⁻¹.

B3: 29G11 IgG (antibody, V domains shown)
VH: QLQLVESGGGLVQPGGSLRLSCAASGFTFGTYSMRWVRQVPRKALEWVSSISTDGGGTAYRDSVKGRFTISRDNAKNTLYLQMNNLKPEDTAIYYCVIAGYSDWGQGTQVTVSS
VL: DVVLTQTPGSLSVVPGGSASISCKASQSLVYSDGKTYLYWLRQKPGQSPQRLIYQVSNRPSGVPDRFTGSGSGTDFTLKISGVKAEDAGVYYCAQDTYSTKTFGQGTKLEIK
Regarding B3, the Kd with native human ApoC3 [1] was 4.79 nM; with native human ApoC3 [2], 4.85 nM; in the assay with native human ApoC3 [3], 5.21 nM; with native human ApoC3 [4], 5.76 nM; in the assay with native human ApoC3 [7] it was 0.04 nM; in the assay with native human ApoC3 [5], 0.05 nM. The values for the Kd in [8] and in assay [9] were 0.25 nM and 0.38 nM, respectively. Moreover, the koff amounted to 0.00115 s⁻¹ with native human ApoC3 [1]; 0.00117 s⁻¹ with native human ApoC3 [2]; 0.00122 s⁻¹ with native human ApoC3 [3]; 0.00119 s⁻¹ in the assay with native human ApoC3 [4]; 6.3e-05 s⁻¹ in the assay with native human ApoC3 [7]; 7.3e-05 s⁻¹ in the assay with native human ApoC3 [5]. Also, the koff worked out at 0.000531 s⁻¹ in assay [9] and 0.000228 s⁻¹ in [10]. Moreover, the kon with native human ApoC3 [1] was found to be 240000 M⁻¹ s⁻¹; with native human ApoC3 [2], 241000 M⁻¹ s⁻¹; with native human ApoC3 [3], 234000 M⁻¹ s⁻¹; with native human ApoC3 [4], 207000 M⁻¹ s⁻¹; with native human ApoC3 [7], 1.44e+06 M⁻¹ s⁻¹; with native human ApoC3 [5] it was 1.38e+06 M⁻¹ s⁻¹. The kon in assay [9] was found to be 1.4e+06 M⁻¹ s⁻¹; in [10], 920000 M⁻¹ s⁻¹.

B4: 29F10 IgG (antibody, V domains shown)
VH: QLQLVESGGGLVQPGGSLRLSCAASGFTFGTYSMRWVRQVPRKALEWVSSISTDGGGTAYRDSVKGRFTISRDNAKNTLYLQMNNLKPEDTAIYYCVIAGYSDWGQGTQVTVSS
VL: DVVLTQTPGSLSVVPGEPASVSCKASQSLVHPDGKTYLYWLLQKPGQSPQRLIYQVSNRGSGVPDRFTGSGSGTDFTLEISGVKAEDAGVYYCAQGTYWPKTFGQGTKLEIK
Turning to B4, the Kd with native human ApoC3 [1] amounted to 1.71 nM; with native human ApoC3 [2], 1.63 nM; with native human ApoC3 [3], 1.63 nM; with native human ApoC3 [4], 1.8 nM; in the assay with native human ApoC3 [7], 0.04 nM; in assay [8], 1.75 nM. In assay [11], the Kd came to 2.79 nM. Moreover, the koff in the assay with native human ApoC3 [1] stood at 0.000246 s⁻¹; with native human ApoC3 [2], 0.000219 s⁻¹; in the assay with native human ApoC3 [3], 0.000217 s⁻¹; in the assay with native human ApoC3 [4] it was 0.000219 s⁻¹; with native human ApoC3 [7] it was 2.4e-05 s⁻¹; in assay [11], 0.000774 s⁻¹. The koff in assay [10] is 0.000388 s⁻¹; with native human ApoC3 [12], under 1e-06 s⁻¹. Also, the kon in the assay with native human ApoC3 [1] stood at 144000 M⁻¹ s⁻¹; in the assay with native human ApoC3 [2], 134000 M⁻¹ s⁻¹; with native human ApoC3 [3], 133000 M⁻¹ s⁻¹; with native human ApoC3 [4], 122000 M⁻¹ s⁻¹; with native human ApoC3 [7], 620000 M⁻¹ s⁻¹; in [11], 280000 M⁻¹ s⁻¹. In addition, in [10], the kon is 220000 M⁻¹ s⁻¹.
